The results in this text go back to patent US20230242601A1, “PEPTIDE USED TO PREVENT OR TREAT SYNUCLEINOPATHY” (TOHOKU UNIVERSITY, priority 2020, published 2023).

Usually pKd stands for the Kd on a negative log10 scale, so that one unit is a factor of ten. A low value points to a large Kd.

Experiment [1] has as its target FABP3 (Homo sapiens, UniProt P05413). Briefly: QCM (quartz crystal microbalance) binding analysis of immobilized FABP3 with α-synuclein or its peptides. The conditions noted are these: for binding to FABP3: His-tagged FABP3 immobilized, 2.5-20 nM analyte, 50 mM Tris-HCl pH 7.4, 25° C.; for binding affinity for FABP3 compared with the natural sequence (SynP130-140), in words / binding affinity for FABP3 relative to the natural sequence (SynP130-140): immobilized FABP3. As for the experimental part: The substrate was washed with purified water, then 500 μL of a Ni solution (20 mM HEPES-NaOFH buffer, pH 7.5, 150 mM NaCl, 50 mM EDTA, 10 mM NiSO4) was added, and the substrate was allowed to stand at room temperature for 10 minutes. The substrate was washed with purified water, then 100 nM of FABP3 fused with a His-tag at the N-terminus diluted with a 50 mM Tris-HCl pH 7.4 was added to a quartz sensor and treated for one minute to be immobilized. […] The measurement was performed in a 500 μL liquid under conditions of 25° C. and 1000 rpm for three minutes. After the measurement, Kd, kon, and koff were each calculated with AQUA 2.0 software (Initium).
FABP3 and various mutants of SynP130-140 were interacted in the same manner as in Example 1. The measurement was performed by adding each peptide at any concentration to the immobilized FABP3.
The detailed experimental method is as described in the method of Example 1.

Experiment [2] concerns the target α-synuclein and FABP3 (Syn-FABP3 complex) (Homo sapiens, UniProt P05413). In words: Thioflavin T fluorescence / TEM observation of α-synuclein amyloid fibril formation with FABP3 and peptide. The class given is biochemical. As for the experimental part:
An ARVO X4 (Perkin Elmer) was used for shaking and measuring fluorescence values over time in the fibril formation process of Syn. For the measurement, the samples were added to a 96-well plate (8×12-well plate; Greiner, Kremsmuenster, Austria) to give 150 μL/well, and the fluorescence (Ex of 440 nm and Em of 486 nm) was measured every 15 minutes while the well plate was continuously shaken at 37° C. […] Samples after 1800 minutes obtained after the measurement were measured with a transmission electron microscope (TEM) (JEOL JEM-1400 Plus). To a collodion membrane (400 mesh; Nisshin EM, Tokyo, Japan), 10 μL of the sample was added and allowed to stand at room temperature for two minutes, then washed with 5 μL of purified water, stained with 5 μL of a 10% EM stain solution for one minute, and then washed with 5 μL of purified water. This was air-dried overnight and then measured.
The thio-T measurement and the measurement with a TEM were performed in the same manner as in Example 3.
The thio-T measurement and the measurement with a TEM were performed in the same manner as in Example 3. The Thio-T measurement was performed for samples to each of which SynP130-140 was added at the beginning (0 hour), after 3 hours, 8 hours, or 24 hours.

The test system of experiment [3] is cultured dopaminergic nerve cells. In words: Antagonistic effect of C-terminal peptide on uptake of ATTO-550-labeled α-synuclein monomer into cultured dopaminergic nerves. The settings on record: 1 μM peptide with 1 μM ATTO-550-labeled α-synuclein monomer, 48 hours; p<0.0001 vs control. The class given is cell-based, mouse. The method, then:
Cultured dopaminergic nerves were prepared according to the method (Kawahata et al. 2019) already described. Specifically, the uterus was aseptically removed from a C57BL6N mouse on day 15.5 of pregnancy by abdominal midline incision under deep isoflurane anesthesia, and the fetal mesencephalon was removed in ice-cold Hank's balanced salt solution (HBSS) under a stereomicroscope. The tissue was then dispersed by treatment with a nerve cell suspension (Sumitomo Bakelite) at 37° C. for 30 minutes, the dispersion was centrifuged at 1000 rpm for 5 minutes, and then the supernatant was discarded. The cell pellet was dispersed, then a removal solution (Sumitomo Bakelite) was added, and the mixture was centrifuged at 900 rpm for 5 minutes. The supernatant was then removed, the pellet was suspended in Eagle's minimal essential medium (EMEM) and seeded on a poly-L-lysine-coated chamber plate (Iwaki). […] Values are mean±SEM (n>20), and one-way ANOVA with Tukey test was performed for all the groups. The conceptual diagram of the synthesized α-synuclein is illustrated in C.

pKd: −log10 of the molar value. Where no end group is shown, it is not given here.

Chain of FABP3 (P05413 2-133 limits assumed): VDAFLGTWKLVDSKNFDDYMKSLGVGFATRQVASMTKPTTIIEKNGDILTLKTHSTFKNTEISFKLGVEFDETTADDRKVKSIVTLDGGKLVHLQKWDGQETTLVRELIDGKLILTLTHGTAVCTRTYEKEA
Chain of α-synuclein and FABP3 (Syn-FABP3 complex) (P05413 whole entry, species assumed, one chain of several): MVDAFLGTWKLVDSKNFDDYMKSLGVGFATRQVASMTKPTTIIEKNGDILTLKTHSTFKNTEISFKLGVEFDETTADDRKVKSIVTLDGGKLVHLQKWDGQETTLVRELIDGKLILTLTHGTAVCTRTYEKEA

In the case of “SynP2-10: peptide of the N-terminal region of human α-synuclein, second to tenth amino acids (DVFMKGLSKA; partial peptide of alpha-synuclein) [reference compound]”, the “binding to FABP3” value in experiment [1] (QCM) is on record as “hardly bound to FABP3”.
For “Y133W/Y136W: peptide in which the 133rd and 136th tyrosines in SynP130-140 were replaced by tryptophans (EEGWQDWEPEA)”, in experiment [1] (QCM), the “binding affinity for FABP3 compared with the natural sequence (SynP130-140), in words” value is on record as “did not change the binding affinity”.
In turn, EEGFQDYEPEA [Y133F] gave a pKd in experiment [1] (QCM, binding to FABP3) of 10.00. In addition, in experiment [1] (QCM), the “binding affinity for FABP3 relative to the natural sequence (SynP130-140)” value is “two-fold stronger”. For the same substance, in experiment [2] (peptide at 0.1, 0.5 or 1 equivalent to 69 μM α-synuclein and 69 μM FABP3), the “amyloid aggregate formation of α-synuclein, concentration dependence” value is on record as “preferentially binds to FABP3 in a dose-dependent manner”.
On to “Y136F: SynP130-140 mutant in which tyrosine at position 136 was changed to phenylalanine (EEGYQDFEPEA)”, for which the “binding affinity for FABP3 compared with the natural sequence (SynP130-140), in words” value in experiment [1] (QCM) is “about the same affinity”.
Take “Y136W: peptide in which the 136th tyrosine in SynP130-140 was replaced by tryptophan (EEGYQDWEPEA)”: the “binding affinity for FABP3 compared with the natural sequence (SynP130-140), in words” value in experiment [1] (QCM) is “about the same affinity”.
Consider “SynP130-140: peptide of the C-terminal region of human α-synuclein composed of the 130th to 140th amino acids (EEGYQDYEPEA; partial peptide of alpha-synuclein)”, for which the “affinity for FABP3 compared with Syn” value in experiment [1] was “stronger affinity for FABP3”. Besides, the “binding to FABP3” value in experiment [1] (QCM) is on record as “bound to FABP3 in a dose dependent manner”. Besides, the “amyloid fibril aggregate formation of α-synuclein” value in experiment [2] (FABP3, α-synuclein and peptide added simultaneously, 1:1:1 molar ratio (69 μM each), Thio-T, 37° C.) is “forms amyloid tibril aggregates”. Besides, the “release of Syn from the Syn-FABP3 complex and amyloid fibril formation” value in experiment [2] (equimolar peptide added to the preformed 1:1 complex at 0, 3, 8 or 24 hours) is recorded as “releases Syn from FABP3”.
In the case of EGYQDYEPEA [10aa], the “intracellular uptake of fluorescently labeled α-synuclein (ATTO fluorescence intensity)” value in experiment [3] was “inhibited the intracellular uptake”.
Consider “SynP73-96: peptide of the NAC region of human α-synuclein, 73th to 96th amino acids [reference compound]”, for which the “binding to FABP3” value in experiment [1] (QCM) was “hardly bound to FABP3”.
Consider “Y133F/Y136F: SynP130-140 mutant in which tyrosine at position 133 and position 136 were both changed to phenylalanine (EEGFQDFEPEA)”, for which the “binding affinity for FABP3 relative to the natural sequence (SynP130-140)” value in experiment [1] (QCM) was 2 fold.
Regarding “Y133F/Y136W: SynP130-140 mutant with tyrosine 133 changed to phenylalanine and tyrosine 136 changed to tryptophan (EEGFQDWEPEA)”, the “binding affinity for FABP3 compared with the natural sequence (SynP130-140), in words” value in experiment [1] (QCM) is reported as “failed to further strengthen the binding affinity”.
FABP3: fatty acid-binding protein 3: in experiment [2] (equimolar FABP3 added to α-synuclein, no peptide, Thio-T), the “aggregation of synuclein on adding FABP3 alone” value was “completely suppressed the aggregation of synuclein”.
